According to PMC3111228 (The Journal of neuroscience : the official journal of the …, 2011):

molecular target: recombinant CaM (calmodulin) (UniProt P0DP23 1-149); assay: pull-down

binding result | Binder
binds | GST-mGluR1-Cprox with mGluR5 888-EKSTRGQHL-896 in place of 901-…-909 (domain or fragment) PERNVRSAFTTSDVVRMHVGDGKLPCRSNTFLNIFRRKKPGAGNANSNGKSVSWSEPGGEKSTRGQHLWQRLSVHVKTNETACNQTAVIKPLTKSYQGSGKSLTFSDASTKTLYNVEE
binds | GST-mGluR1 V909L (domain or fragment) PERNVRSAFTTSDVVRMHVGDGKLPCRSNTFLNIFRRKKPGAGNANSNGKSVSWSEPGGRQAPKGQHLWQRLSVHVKTNETACNQTAVIKPLTKSYQGSGKSLTFSDASTKTLYNVEE
binds | GST-mGluR5-Cprox with EKST exchanged (domain or fragment) PERNVRSAFTTSTVVRMHVGDGKSSSAASRSSSLVNLWKRRGSSGETLSSNGKSVTWAQNRQAPRGQHLWQRLSVHINKKENPNQTAVIKPFPKSTENRGPGAAAGGGSGPGVAGAG
